One data set deals with T1, CgDapF (Corynebacterium glutamicum, UniProt Q8NP73).
T1 construct: gene dapF
Briefly: X-ray crystal structure, […] A. The class given is binding. As to conditions: crystallised with a 10 mM DAP isomer mixture (L,L, D,D, D,L), pH 9.0; only D,L-DAP density seen; active site.

Substrate in the data set “purified protein”: N[C@@H](CCC[C@H](N)C(=O)O)C(=O)O
The data set can be described thus: purified protein. The note with it: 0.1 M potassium phosphate, pH 8.0, room temperature, 3.45 uM enzyme, substrate named in the assay method. The class given is biochemical, Corynebacterium glutamicum.

Data set [1] concerns the molecule itself. The data set can be described thus: SEC; size-exclusion chromatography under both the oxidized and the reduced conditions; data not shown. On the technique in general: Size exclusion chromatography separates by hydrodynamic size, large species first.

Take `N[C@H](CCC[C@H](N)C(=O)O)C(=O)O` [D,L-DAP]: on CgDapF, the “X-ray crystal structure, 2.6 A” value is given as “we determined the crystal structure of the protein in complex with the D,L-DAP product”.

B1: CgDapF (Corynebacterium glutamicum ATCC 13032) (protein)
chain: MNLTIPFAKGHATENDFIIIPDEDARLDLTPEMVVTLCDRRAGIGADGILRVVKAADVEGSTVDPSLWFMDYRNADGSLAEMCGNGVRLFAHWLYSRGLVDNTSFDIGTRAGVRHVDILQADQHSAQVRVDMGIPDVTGLSTCDINGQVFAGLGVDMGNPHLACVVPGLSASALADMELRAPTFDQEFFPHGVNVEIVTELEDDAVSMRVWERGVGETRSCGTGTVAAACAALADAGLGEGTVKVCVPGGEVEVQIFDDGSTLTGPSAIIALGEVQI
The Km is the substrate concentration at which the rate is half of its maximum. As a reminder, the kcat is the number of substrate molecules converted per active site and unit of time at saturation. For the molecule B1, in the data set “purified protein”, the Km was 1860 µM and the kcat was found to be 58 s⁻¹.

B2: Diaminopimelate epimerase (DapF) from Corynebacterium glutamicum (enzyme, UniProt Q8NP73 1-277, looked up)
chain: MNLTIPFAKGHATENDFIIIPDEDARLDLTPEMVVTLCDRRAGIGADGILRVVKAADVEGSTVDPSLWFMDYRNADGSLAEMCGNGVRLFAHWLYSRGLVDNTSFDIGTRAGVRHVDILQADQHSAQVRVDMGIPDVTGLSTCDINGQVFAGLGVDMGNPHLACVVPGLSASALADMELRAPTFDQEFFPHGVNVEIVTELEDDAVSMRVWERGVGETRSCGTGTVAAACAALADAGLGEGTVKVCVPGGEVEVQIFDDGSTLTGPSAIIALGEVQI
modifications: selenomethionine-substituted (SeMet derivative) in the crystals of the oxidized and reduced forms (5H2G, 5H2Y)
notes: Diaminopimelate epimerase (DapF, EC 5.1.1.7) of Corynebacterium glutamicum strain ATCC 13032, gene amplified from genomic DNA and cloned in pET30a; also called CgDapF; DAP epimerase; source: E. coli B834(DE3), purified (Ni-NTA, size-exclusion chromatography on Superdex 200); not shown: His tag (from the Ni-NTA purification)
Broadly, the stoichiometry N is a count of units in the complex or per binding partner. Turning to B2, in data set [1], the “stoichiometry N” value was determined as 2.

Source of the values: publication PMC5296763, “Structural basis for redox sensitivity in Corynebacterium glutamicum diaminopimelate epimerase: an enzyme involved in L-lysine biosynthesis” (Scientific Reports, 2017).
